Substance: Thrombin
- cleavage by thrombin (reducing SDS-PAGE, Western blot with anti-human UPA antibody) (Microlyse variant 1.0): For both ML 1.0 and ML 1.1 a distinct band at around 35 Kd is observed, indicating cleavage of Microlyse by thrombin.
- cleavage by thrombin (reducing SDS-PAGE, Western blot with anti-human UPA antibody) (Microlyse variant 1.1): For both ML 1.0 and ML 1.1 a distinct band at around 35 Kd is observed, indicating cleavage of Microlyse by thrombin.

— patent US20260125665
